The record followed here is US20220135684A1 (Xencor, published 2022).

For experiment [1], the target named is T1, cell-surface CD28 on human PBMCs (human, UniProt P10747 19-220).
T1 construct: whole, on cells
Briefly: flow cytometry on human PBMCs, anti-human Fc secondary. In general terms: In flow cytometry, cells or beads pass a laser one at a time.

In experiment [2] the target is T2, human CD28 (human, UniProt P10747 19-152).
T2 construct: also called Cluster of Differentiation 28; Tp44
Briefly: Octet (BLI), scFv arm in a bsAb; value told in the text.

Experiment [3] has as its target T2, human CD28. Put plainly: Octet (BLI), scFv arm in the bsAb; value told in the text. (Biolayer interferometry detects binding as a change in optical thickness at a sensor tip.)
The target of a further experiment is T3, human PDL1 antigen (human, UniProt Q9NZQ7 19-238).
T3 construct: they are put here
Put plainly: Biacore (SPR), Fab arm in the bsAb; value told in the text. Background: Surface plasmon resonance follows binding to a sensor surface in real time, without labels.

B1: XENP27181 (antibody, human IgG1, kappa, V domains shown)
VH: QVQLQESGPGLVKPSETLSLTCAVSGFSLTSYGVHWIRQPPGKGLEWLGVIWPGGGTNFNSALMSRLTISEDTSKNQVSLKLSSVTAADTAVYYCARDRAYGNYLYAMDYWGQGTLVTVSS
VL: DIQMTQSPSSLSASVGDRVTITCRASESVEYYVTSLMQWYQQKPGKAPKLLIYAASNVDSGVPSRFSGSGSGTDFTLTISSLQPEDIATYYCQQSRKVPFTFGGGTKVEIKR
notes: Bivalent mAb, IgG1 backbone with E233P/L234V/L235A/G236del/S267K ablation variant; also called HuTN228; prior art anti-CD28 mAb HuTN228; copies: 2 + 2
With B1, the binding result in experiment [1] is “binds”.

B2: XENP28428 (antibody, V domains shown)
VH: EVQLLESGGGLVQPGGSLRLSCAASGFTFSSYAMSWVRQAPGKGLEWVSTISGSGDSTYYADSVKGRFTISRDNSKNTLYLQMNSLRAEDTAVYYCAKSGPGLRQVGFDYWGQGTLVTVSS
VL: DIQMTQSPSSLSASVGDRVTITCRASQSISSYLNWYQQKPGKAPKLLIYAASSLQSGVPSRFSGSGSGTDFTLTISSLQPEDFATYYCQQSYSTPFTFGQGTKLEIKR
notes: Bivalent mAb, IgG1 backbone with E233P/L234V/L235A/G236del/S267K ablation variant; also called anti-CD28 mAb based on clone 1A7; parental αCD28 mAb 1A7; copies: 2 + 2
On to B2, for which the binding result in experiment [1] was “binds”.

B3: XENP37261 (bispecific antibody)
heavy: EVQLLESGGGLVQPGGSLRLSCAASGFTFSSYDMSWVRQAPGKRLEWVSTISSGGSFTHYPDSVKGRFTISRDNSKNTLYLQMNSLRAEDTAVYYCVRRSGDWYFDVWGAGTTVTVSSASTKGPSVFPLAPSSKSTSGGTAALGCLVKDYFPEPVTVSWNSGALTSGVHTFPAVLQSSGLYSLSSVVTVPSSSLGTQTYICNVNHKPSDTKVDKKVEPKSCDKTHTCPPCPAPPVAGPSVFLFPPKPKDTLMISRTPEVTCVVVDVKHEDPEVKFNWYVDGVEVHNAKTKPREEEYNSTYRVVSVLTVLHQDWLNGKEYKCKVSNKALPAPIEKTISKAKGQPREPQVYTLPPSREEMTKNQVSLTCDVSGFYPSDIAVEWESDGQPENNYKTTPPVLDSDGSFFLYSKLTVDKSRWEQGDVFSCSVMHEALHNHYTQKSLSLSPGK
scFv-Fc: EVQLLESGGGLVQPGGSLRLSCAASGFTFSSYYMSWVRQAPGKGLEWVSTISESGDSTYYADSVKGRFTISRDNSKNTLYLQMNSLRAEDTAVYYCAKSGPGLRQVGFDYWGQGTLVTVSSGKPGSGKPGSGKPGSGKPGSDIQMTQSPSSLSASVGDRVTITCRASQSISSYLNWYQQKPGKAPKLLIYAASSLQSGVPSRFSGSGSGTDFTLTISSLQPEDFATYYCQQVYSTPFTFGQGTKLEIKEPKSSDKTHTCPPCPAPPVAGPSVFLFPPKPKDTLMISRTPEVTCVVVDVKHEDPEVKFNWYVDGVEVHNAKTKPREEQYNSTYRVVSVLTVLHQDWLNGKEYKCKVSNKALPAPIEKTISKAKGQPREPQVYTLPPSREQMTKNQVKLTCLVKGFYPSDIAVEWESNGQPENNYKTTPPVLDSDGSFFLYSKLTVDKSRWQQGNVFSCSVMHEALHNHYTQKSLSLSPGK
light: EIVLTQSPGTLSLSPGERATLSCRVSSSISSSNLHWYQQKPGQSPRPLIYGTSNLASGVPVRFSGSGSGTDYTLTISRLEPEDFAVYYCQQWSSYPLYTFGGGTKVEIKRTVAAPSVFIFPPSDEQLKSGTASVVCLLNNFYPREAKVQWKVDNALQSGNSQESVTEQDSKDSTYSLSSTLTLSKADYEKHKVYACEVTHQGLSSPVTKSFNRGEC
notes: 1+1 Fab-scFv-Fc format; also called αPDL1×αCD28 bsAb; 1A7_H1.14_L1.71
Usually Kd stands for the free concentration of one partner at which half of the binding sites on the other are occupied at equilibrium, for simple one-to-one binding. As for B3, the Kd in the experiment with human CD28 [2] was 37 nM; in the experiment with human CD28 [3], 36 nM.

B4: XENP38514 (bispecific antibody)
heavy: EVQLLESGGGLVQPGGSLRLSCAASGFTFSVYDMSWVRQAPGKRLEWVSTISSGGSFTHYPDSVKGRFTISRDNSKNTLYLQMNSLRAEDTAVYYCVRRSLDWYFDVWGAGTTVTVSSASTKGPSVFPLAPSSKSTSGGTAALGCLVKDYFPEPVTVSWNSGALTSGVHTFPAVLQSSGLYSLSSVVTVPSSSLGTQTYICNVNHKPSDTKVDKKVEPKSCDKTHTCPPCPAPPVAGPSVFLFPPKPKDTLMISRTPEVTCVVVDVKHEDPEVKFNWYVDGVEVHNAKTKPREEEYNSTYRVVSVLTVLHQDWLNGKEYKCKVSNKALPAPIEKTISKAKGQPREPQVYTLPPSREEMTKNQVSLTCDVSGFYPSDIAVEWESDGQPENNYKTTPPVLDSDGSFFLYSKLTVDKSRWEQGDVFSCSVMHEALHNHYTQKSLSLSPGK
scFv-Fc: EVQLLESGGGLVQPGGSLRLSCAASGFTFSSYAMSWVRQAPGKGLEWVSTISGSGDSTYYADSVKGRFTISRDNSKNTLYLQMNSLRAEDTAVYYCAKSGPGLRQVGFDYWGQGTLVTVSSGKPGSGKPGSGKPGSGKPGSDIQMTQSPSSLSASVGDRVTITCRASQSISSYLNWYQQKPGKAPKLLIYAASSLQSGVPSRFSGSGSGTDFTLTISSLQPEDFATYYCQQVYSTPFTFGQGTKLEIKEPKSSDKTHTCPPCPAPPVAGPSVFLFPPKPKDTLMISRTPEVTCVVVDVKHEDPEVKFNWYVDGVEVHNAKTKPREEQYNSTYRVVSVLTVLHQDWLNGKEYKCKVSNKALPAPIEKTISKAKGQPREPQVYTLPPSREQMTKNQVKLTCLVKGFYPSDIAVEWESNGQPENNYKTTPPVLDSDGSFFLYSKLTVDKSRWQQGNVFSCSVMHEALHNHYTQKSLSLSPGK
light: EIVLTQSPGTLSLSPGERATLSCRVSSSIQSTNLHWYQQKPGQSPRPLIYGTSVLATGVPVRFSGSGSGTDYTLTISRLEPEDFAVYYCQQWSSYPLYTFGGGTKVEIKRTVAAPSVFIFPPSDEQLKSGTASVVCLLNNFYPREAKVQWKVDNALQSGNSQESVTEQDSKDSTYSLSSTLTLSKADYEKHKVYACEVTHQGLSSPVTKSFNRGEC
Consider B4, for which the Kd in the experiment with human PDL1 antigen stood at 0.17 nM.
